Measurements from article PMC3129624.

Substrate: NC(=O)N[C@H]1NC(=O)NC1=O
Test: purified protein
Type: biochemical, Klebsiella pneumoniae
Details: 10 mM NaCl, 10 mM HEPES, pH 7.5, 25 °C, no cofactor or metal

B1: KpHpxA (K. pneumoniae allantoin racemase) (Klebsiella pneumoniae subsp. pneumoniae MGH 78578) (protein)
chain: MSSVRIQVINPNTSLAMTETIGAAARAVAAPGTEILAVCPRAGVPSIEGHFDEAIAAVGVLEQIRAGREQGVDGHVIACFGDPGLLAARELAQGPVIGIAEAAMHMATMVATRFSIVTTLPRTLIIARHLLHQYGFHQHCAALHAIDLPVLALEDGSGLAQEKVRERCIRALKEDGSGAIVLGCGGMATLAQELTRELRVPVIDGVSAAVKMVESLVALGLATSKHGDLAFPEKKALSGQFQSLNPF
kcat: 183 ± 17 s⁻¹
